Laboratory results published in patent US20230125614A1.

Biological target: ARC40-GFP bait (S. cerevisiae ARC40, member of the Arp2/3 complex, fused with a C-terminal GFP epitope tag) (Saccharomyces cerevisiae) (UniProt P38328)
Experiment: in vivo mRNA display co-purification, pooled yeast library, anti-GFP bead IP of ARC40-GFP, NGS read-out

Substance	Display Score
in vivo mRNA display library protein ARC18 (MCP-ARC18 fusion with purification tag) (from UniProt Q05933 1-178)	3.3
in vivo mRNA display library protein ARC19 (MCP-ARC19 fusion with purification tag) (from UniProt P33204 1-171)	3.9

Other lines, results leading:

Display Score	Substance
3.7	in vivo mRNA display library protein ARC35 (MCP-ARC35 fusion with purification tag) (from UniProt P53731 1-342)
0.55	in vivo mRNA display library protein ARP2 (MCP-ARP2 fusion with purification tag) (from UniProt P32381 1-391)

Biological target: ARC40-GFP bait (S. cerevisiae ARC40, member of the Arp2/3 complex, fused with a C-terminal GFP epitope tag) (Saccharomyces cerevisiae) (UniProt P38328)
Experiment: low-throughput in vivo mRNA display co-purification, individually cloned ORFs, anti-GFP bead IP of ARC40-GFP

Display Score	Substance
1.8	in vivo mRNA display library protein ARP2 (MCP-ARP2 fusion with purification tag) (from UniProt P32381 1-391)
1.9	in vivo mRNA display protein MYO3 (MCP-MYO3 fusion, individually cloned for the low-throughput experiment) (from UniProt P36006 1-1272)
